The values below come from paper PMC3799832.

The stoichiometry N is a count of units in the complex or per binding partner.

This experiment has as its target full-length talin1 purified from turkey gizzard (turkey). In words: electron microscopy single-particle 3D reconstruction.

As for “full-length talin1 purified from turkey gizzard”, the stoichiometry N was determined as 2.
